From patent US20040081647A1

Target: recombinant human TNFα (RDI) (human) (UniProt P01375)
Assay: cell-based or functional assay

Chain of recombinant human TNFα (RDI) (human) (P01375 77-233 limits assumed): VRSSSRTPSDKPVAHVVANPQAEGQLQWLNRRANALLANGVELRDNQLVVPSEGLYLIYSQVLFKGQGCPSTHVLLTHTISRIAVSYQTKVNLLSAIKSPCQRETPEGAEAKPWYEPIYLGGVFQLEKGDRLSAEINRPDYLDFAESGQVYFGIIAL

B1: MMP7 (enzyme, UniProt P09237 95-267, looked up, species assumed)
Matrilysin: YSLFPNSPKWTSKVVTYRIVSYTRDLPHITVDRLVSKALNMWGKEIPLHFRKVVWGTADIMIGFARGAHGDSYPFDGPGNTLAHAFAPGTGLGGDAHFDEDERWTDGSSLGINFLYAATHELGHSLGMGHSSDPNAVMYPTYGNGDPQNFKLSQDDIKGIQKLYGKRSNSRKK
- survival of L929 cells at the dilution equivalent to ˜600 pg/ml TNFα after digestion: 40 % survival
